The target of one assay is T1, GST-Gαi3 (Rattus norvegicus, UniProt P08753).
T1 construct: made in house; host or cells: E. coli BL21 (DE3)
As to the kind of experiment: Competition with His-DAPLE-CT for binding to GST-Gαi3 (pulldown). As to the method: Purified GST-Gαi3 or GST alone (5 μg) were immobilized on glutathione-Sepharose beads and incubated with binding buffer [50 mM Tris-HCl (pH 7.4), 100 mM NaCl, 0.4% (v:v) Nonidet P-40, 10 mM MgCl2, 5 mM EDTA, 30 μM GDP, 2 mM DTT, protease inhibitor mixture] for 90 min at room temperature as described before (Garcia-Marcos et al, 2011a; Ghosh et al, 2010; Ghosh et al, 2008; Lin et al, 2011). Lysates (˜250 μg) of Cos7 cells expressing appropriate myc-DAPLE constructs or purified His-DAPLE-CT (aa 1650-2028) protein (3 μg) were added to each tube, and binding reactions were carried out for 4 h at 4° C. with constant tumbling in binding buffer [50 mM Tris-HCl (pH 7.4), 100 mM NaCl, 0.4% (v:v) Nonidet P-40, 10 mM MgCl2, 5 mM EDTA, 30 μM GDP, 2 mM DTT]. Beads were washed (4×) with 1 mL of wash buffer [4.3 mM Na2HPO4, 1.4 mM KH2PO4 (pH 7.4), 137 mM NaCl, 2.7 mM KCl, 0.1% (v:v) Tween 20, 10 mM MgCl2, 5 mM EDTA, 30 μM GDP, 2 mM DTT] and boiled in Laemmli's sample buffer. In some experiments the ‘active’ conformation of the G protein was stabilized by replacing GDP in the binding and wash buffers with 30 μM GTPγS or a mixture of 30 μM GDP/30 μM AlCl3/10 mM NaF. Immunoblot quantification was performed by infrared imaging following the manufacturer's protocols using an Odyssey imaging system (Li-Cor Biosciences).

Another assay concerns NIH3T3 cells. As to the kind of experiment: 3D spheroid matrigel invasion assay. In kind it is cell-based. As to conditions: in response to Wnt5a. As for the experimental part: NIH3T3 cell invasion assay in 3D culture was performed according to the manufacturer's protocol (Trevigen, Cultrex 3D Spheroid BME Cell Invasion Assay, catalog #3500-096-K). Briefly, non-invasive NIH3T3 cells (˜3000 cells) transfected with empty vector (control) or myc-DAPLEconstructs were incubated first in the Spheroid Formation extracellular matrix (ECM) containing 0.2% FBS for 3 days. Invasion matrix was then added and layered on top with media containing FBS. […] Photographs were analyzed and pseudocolored by Image J to reflect cell density.

The test system of assay [1] is β-Catenin/TCF/LEF pathway in DLD1 7TGP cells. As to the kind of experiment: β-Catenin reporter assay (7TGP). The assay is classed as cell-based, human. Conditions: stable expression, starved and stimulated with Wnt5a, versus vector control. As to the method:
These assays were carried out using the well-established reporter 7×Tcf-eGFP (7TGP) (Fuerer & Nusse, 2010). Stable cells lines expressing this reporter were generated by lentiviral transduction and subsequent selection using standard procedures. Lentiviral infection and selection were performed according to standard procedures. Briefly, 10 cm plates DLD1 cells at 70% confluency were incubated with media containing 8 μg/mL polybrene and 10 μl of lentivirus for 6 h. After 24 hours post infection, selection of puromycin-resistant clones was initiated by adding the antibiotic at 2 μg/ml final concentration. The resultant DLD1-7TGP stable cells were subsequently transfected with various myc-DAPLE constructs and selected for G418 resistance as described earlier in methods. The DLD1-7TGP cells stably expressing myc-DAPLE were incubated overnight at 0.2% FBS, analyzed by fluorescence microscopy, and photographed prior to lysis. Whole cell lysates samples were then boiled in Laemmli's sample buffer and GFP protein expression was monitored by immunoblotting.
On the technique in general: Reporter assays use an easily measured gene product as a stand-in for the process of interest.

The next assay has as its system DLD1 cells. As to the kind of experiment: Anchorage-dependent tumor growth assay. Conditions: DLD1 cells stably expressing constructs, 2-3 weeks. The assay is classed as cell-based, human. As for the experimental part: Anchorage-dependent growth was monitored on solid (plastic) surface as described previously (Franken et al, 2006). Briefly, anchorage-dependent growth was monitored on solid (plastic) surface. Approximately ˜1000 DLD1 cells stably expressing various DAPLE constructs were plated in 6-well plates and incubated in 5% CO2 at 37° C. for ˜2 weeks in 0.2% FBS growth media. Colonies were then stained with 0.005% crystal violet for 1 h. The remaining DLD1 cells were lysed and analyzed by immunoblotting to confirm DAPLE construct expression. Each experiment was analyzed in triplicate.

4 molecules from patent US10358467B2, “Therapeutic targets for cancer progression” (The Regents of the University of California, priority 2015, dated 2019) can be followed below.

T1 sequence (P08753 whole entry): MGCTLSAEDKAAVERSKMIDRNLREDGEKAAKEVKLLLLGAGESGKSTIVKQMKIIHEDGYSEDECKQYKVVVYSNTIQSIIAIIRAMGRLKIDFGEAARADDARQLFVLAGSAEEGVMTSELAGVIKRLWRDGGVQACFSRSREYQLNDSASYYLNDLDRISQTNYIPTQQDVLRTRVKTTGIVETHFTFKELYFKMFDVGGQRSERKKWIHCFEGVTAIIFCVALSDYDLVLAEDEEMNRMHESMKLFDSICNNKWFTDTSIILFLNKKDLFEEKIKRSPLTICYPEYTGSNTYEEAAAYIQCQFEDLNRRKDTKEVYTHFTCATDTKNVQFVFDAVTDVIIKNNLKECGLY

On to “KB-752: synthetic GEF peptide similar to the GBA motif (SRVTWYDFLMEDTKSR) [reference compound]”, for which the “competition with His-DAPLE-CT for binding to GST-Gαi3” value in the assay with GST-Gαi3 is listed as “competed”.

B1: DAPLE-V2-WT: short isoform of DAPLE (SEQ ID NO: 23, 552 aa) expressed in cells (protein, listed as Homo sapiens)
chain: MSVLSPGDLKPKRGSPHRGSLDRTDASTDLAMRSWPSELGSRTCSTSATTTAPSNSTPIARHPGRTKGYNSDDNLCEPSLEFEVPNHRQYVSRPSSLESSRNTSSNSSPLNLKGSSEQLHGRSESFSSEDLIPSRDLATLPREASTPGRNALGRHEYPLPRNGPLPQEGAQKRGTAPPYVGVRPCSASPSSEMVTLEEFLEESNRSSPTHDTPSCRDDLLSDYFRKASDPPAIGGQPGPPAKKEGAKMPTNFVAPTVKMAAPTSEGRPLKPGQYVKPNFRLTEAEAPPSVAPRQAQPPQSLSLGRPRQAPVPPASHAPASRSASLSRAFSLASADLLRASGPEACKQESPQKLGAPEALGGRETGSHTLQSPAPPSSHSLARERTPLVGKAGSSCQGPGPRSRPLDTRRFSLAPPKEERLAPLHQSATAPAIATAGAGAAAAGSGSNSQLLHFSPAAAPAARTKPKAPPRSGEVATITPVRAGLSLSEGDGVPGQGCSEGLPAKSPGRSPDLAPHLGRALEDCSRGSVSKSSPASPEPGGDPQTVWYEYGCV
modifications: myc tag
Consider B1, for which the “invasion of matrigel by spheroids” value with NIH3T3 cells is “Neither the WT nor the FA mutant of DAPLE-V2 could trigger invasion”. The “eGFP signal (Wnt transcriptional activity)” value in assay [1] was “showed inhibition of eGFP”. Further, the “adherent colonies per well (tumor growth)” value with DLD1 cells is “can inhibit tumor growth”.

B2: DAPLE-V2-FA: DAPLE-V2 with F194A mutation disrupting Gαi3 binding, expressed in cells (protein)
chain: MSVLSPGDLKPKRGSPHRGSLDRTDASTDLAMRSWPSELGSRTCSTSATTTAPSNSTPIARHPGRTKGYNSDDNLCEPSLEFEVPNHRQYVSRPSSLESSRNTSSNSSPLNLKGSSEQLHGRSESFSSEDLIPSRDLATLPREASTPGRNALGRHEYPLPRNGPLPQEGAQKRGTAPPYVGVRPCSASPSSEMVTLEEALEESNRSSPTHDTPSCRDDLLSDYFRKASDPPAIGGQPGPPAKKEGAKMPTNFVAPTVKMAAPTSEGRPLKPGQYVKPNFRLTEAEAPPSVAPRQAQPPQSLSLGRPRQAPVPPASHAPASRSASLSRAFSLASADLLRASGPEACKQESPQKLGAPEALGGRETGSHTLQSPAPPSSHSLARERTPLVGKAGSSCQGPGPRSRPLDTRRFSLAPPKEERLAPLHQSATAPAIATAGAGAAAAGSGSNSQLLHFSPAAAPAARTKPKAPPRSGEVATITPVRAGLSLSEGDGVPGQGCSEGLPAKSPGRSPDLAPHLGRALEDCSRGSVSKSSPASPEPGGDPQTVWYEYGCV
modifications: left off: small tags and cut ends
For B2, the “invasion of matrigel by spheroids” value in the assay with NIH3T3 cells is “Neither the WT nor the FA mutant of DAPLE-V2 could trigger invasion”. Moreover, the “eGFP signal (Wnt transcriptional activity)” value in assay [1] is given as “not”.

B3: His-GIV-CT: His-GIV-CT (aa 1660-1870, containing its GEF motif) (protein)
chain: ISETLESRHHKIKTGSPGSEVVTLQQFLEESNKLTSVQIKSSSQENLLDEVMKSLSVSSDFLGKDKPVSCGLARSVSGKTPGDFYDRRTTKPEFLRPGPRKTEDTYFISSAGKPTPGTQGKIKLVKESSLSRQSKDSNPYATLPRASSVISTAEGTTRRTSIHDFLTKDSRLPISVDSPPAAADSNTTAASNVDKVQESRNSKSRSREQQS
modifications: left off: small tags and cut ends
B3: the “competition with His-DAPLE-CT for binding to GST-Gαi3” value in the assay with GST-Gαi3 was “competed”.
